According to the DeepSol protein solubility set:

Assay: soluble on expression in E. coli; label from the status in PepcDB or PDB records

For “MSLRKHCIAIGGGGWMMGENPSPLYQYILSLSGKENPNICFLPTATGDADEVIERFYNAKLSENVTHFPLFKFDAGWKETLFEQDIIYVGGGNTRSMLAIWREWGIDRILKQCYEQGIIICGMSAGAICWFEFAVTDSDPEAYQVMRCLGLIDGLAAAHFSHVGEKFEVFQAFARSQPSITCYGIHDYAALHFVDGKLLATVTSFPDAGVLVKTGNDENILRGEGHHHHHH”, the “soluble on expression in E. coli” value was “soluble”.
With “MSLKMKPPVEKNEYYDVTFEDLTHEGAGVAKVQGFPIFVPNALPEEKAQIKVTRVKKGFAFGRLIELKEESPHRTDAPCPIYKQCGGCQLQHMTYEGQLLFKQKQVKDVLERIGKLDLSKVTVHPTLGMEDPWNYRNKAQVPVGEREGGLVAGFYQQRSHDIIDMSACLIQQSKNDEAVQAVKDICANYGVKAYNEERHKGWLRHIMVRYGVVTGEMMIVFITRTSDFPHKAKIIEDITAQFPHVKSIVQNINPNKTNVIFGNETNVIWGEEYIYDLIGDVKFAISARSFYQVNPEQTKVLYDKALEYAELQGEETVIDAYCGIGTISLFLAKQAKKVYGVEIVPEAIEDAKRNAELNGNTNAEFAVGEAETVIPKWYEEGITADTLVVDPPRKGCDEALLRTIVEMKPKRVVYVSCNPGTLARDLRVLEDGGYVTREVQPVDMFPHTNHVECCVLIKLKEEGHHHHHH” the “soluble on expression in E. coli” value was “soluble”.
For “MLPKPGTYYLPWEVSAGQVPDGSTLRTFGRLCLYDMIQSRVTLMAQHGSDQHQVLVCTKLVEPFHAQVGSLYIVLGELQHQQDRGSVVKARVLTCVEGMNLPLLEQAIREQRLYKQERGGSQ”, the “soluble on expression in E. coli” value was “soluble”.
For “MVKFIHCADLHLDSPFKSKSYLSPNIFEDVQKSAYESFKNIVDLALKQEVDFIIIAGDLFDSENRTLRAEVFLNEQFERLRKEQIFVYICHGNHDPLTSKITSQWPNNVSVFSNQVETYQAITKSGETIYIHGFSYQNDASYENKIDAYPSSQGQKGIHIGVLHGTYSKSSVKDRYTEFRLEDLNQRLYHYWALGHIHQREQLSDMPVINYPGNIQGRHFNELGEKGCLLVEGDHLKLTTQFYPTQFIKFEEATIETDHTSKQGLYDVIQSFKDKVRTEGKSFYRLNVRINSEDIIAPQDLIQLKEMITEFEENENQFVFIEDLNLQYVQNDEMPIVKEFSPELLDDASLFDSAMTDLYLNPRASKFLDDYNEFDKVELVNHAERLLKDEMRGEQNDN”, the “soluble on expression in E. coli” value was “not soluble”.
For “MLEINKIHQMNCFDFLDQVENKSVQLAVIDPPYNLSKADWDSFDSHNEFLAFTYRWIDKVLDKLDKDGSLYIFNTPFNCAFICQYLVSKGMIFQNWITWDKRDGMGSAKRRFSTGQETILFFSKSKNHTFNYDEVRVPYESTDRIKHASEKGILKNGKRWFPNPNGRLCGEVWHFSSQRHKEKVNGKTVKLTHITPKPRDLIERIIRASSNPNDLVLDCFMGSGTTAIVAKKLGRNFIGCDMNAEYVNQANFVLNQLEIN”, the “soluble on expression in E. coli” value was “soluble”.
For “MGSDKIHHHHHHMNLRQLYYFKKLAEKEHYTIAAAELSITQPSLSHSIAELERELGVYLFEKQGRNIRLTKYGRFYLTYVEKSLAELEKGEKLLHELTSPSHGNIDLGFIYTMGAHTVPELVQNFTKAENHKDITFSFYQGATKSIIPDLKNEKFDLAICSYVENEPDIEFLPLTKQELVIVVAENHPLAKYDSIDLKDTADYSYIFFSDTSGLRPLIDSLFAEINIQPKIGCYVEEDTAMVGLVSVDYGISIMPKISSLAHYNVKVLSINEPKHERFIYLASLKNHYISPASKAFKDFALRYGEKHFL”, the “soluble on expression in E. coli” value was “not soluble”.
For “GMLFSIQTCPCQINPALNAVSTPLLYQDCCQPYHDGLYNQEVEDSDAIRADTAEHLMRTRYSAFVLVKPEYIVKTTLPAQQDLLDIKAIENWAKETDWAGLEVVAHTPKLSKRHAQVEFKAYFKTPDGLQAHHELSTFVKIKNKANSDASWYFLDPTVSMSVTQKQPCICGSGEKFKRCCGMYI”, the “soluble on expression in E. coli” value was “soluble”.
In the case of “MDMGLREMCVGEKRTVIIPPHLGYGEAGVDGEVPGSAVLVFDIELLELVAGLPEGYMFIWNGEVSPNLFEEIDKDGNGEVLLEEFSEYIHAQVASGKGKLAPGFDAELIVKNMFTNQDRNGDGKVTAEEFKLKDQEAKQDEL”, the “soluble on expression in E. coli” value is reported as “soluble”.
For “MGSDKIHHHHHHMNSVVNFRDIGGFPTQQGTVVKTGYFFRSGELVNVAQADQQKLVEDYQIKRIYDFRSAAETQERPDDSIQGTNYLHIDILADIQAQTASLEGMLKTVGSPDEAMDMAYKEMVLSNSGRKGYQTFFENFLSYPQEAILFHCFAGKDRTGIGAALILSALGVEHSYILEDYLKTNEQRKTANEQIIAQYQANGTPLAEIQQLETLLYVKKEYLATALQAIEKEFGSVEGYLKEGLGLPLSAKKDMLSLYTKS”, the “soluble on expression in E. coli” value was “not soluble”.
In the case of “MFDIGFSELLLVFVIGLIVLGPQRLPVAVKTVAGWIRALRSLATTVQNELTQELKLQEFQDSLKKVEKASLENLTPELKASMDELRQAAESMKRTYSANDPEQASDEAHTIHNPVVKGNETQHEGVTPAAAETQASAPEQKPEPVKANVPESTETASVATIDAEKKSAAPVVESSPSSSDKPLEHHHHHH”, the “soluble on expression in E. coli” value is reported as “not soluble”.
With “MGSDKIHHHHHHMSKRLMPSTTALQCFEAAARHLSFTRAAQELHLTQSAVSKQVAQLEDMLSHSLFQRIRRRLHLTPAGALYLTEVNKILTQIDISSRYILSYGDETEVLRIATQPTFGARWLVPRLKGFGDRYPRIHLDVRNELEPFDLVQAKADVAFFFGQGTWPGATCIELFSEEVVPVCSPQLLASHRFDSAQALTEHRLLQCVSRPEAWHEWFLGLGLHSQNSYHGPRFDTFYLCIRAAISGCGIALIPRYLVAEELSEGKLVVAWDHPVASNGRHFIAHAEHAAEVPKIRAFVQWIRERVAEGD” the “soluble on expression in E. coli” value was “not soluble”.
With “MPAYPREGKIIQIHSYKHNGTIHRIWQETVVLKGTPSYVIGGNNKTLVMEADGRTWVTREPAICFFHAKHWFNIIAMIREDGVYYYCNLSSPFVWDEEALKYIDYDLDIKVFPDMTYMLLDEDEYERHRREMHYPDVIDRILKNNVQKLIGWIKERKGPFAPEFIDKWYGVFQAYQT” the “soluble on expression in E. coli” value was “not soluble”.
For “MLSEFLHNKSDAMVNQTHEFLLEMTGVSKEFPGVKALDKVNLKVRPHSVHALMGENGAGKSTLLKCLFGIYEKDEGDIIFLGQHVNFSSSKEALESGVSMVHQELNQVKQCSVMDNIWLGRYPTKGFFVDHDKMYRDTKAIFAELDIDIDPKVKVATLSVSQMQMLEIAKAFSYDAKVVIMDEPTSSLTEKEVNHLFTIIKKLKEKGCGVVYISHKMEEIFSICDEITILRDGQWVDTRPLKGLDMDKIISMMVGRELTQRFPEKSNEPKNVILEVKNLTALNQPSIQDISFELRAGEILGVAGLVGSRRTDIVETIFGVRERSAGHILLHGREMKNHDAHEAIRNGFALVTEERRSTGIYSNLDITFNSLVANVDEYKTPYGLLSDKKMKSDTQWVIDSMRVKTPSHQTHIGSLSGGNQQKVIIGRWLLTQPEILMLDEPTRGIDVGAKYEIYQLILELAKKDKGIIIISSEMPELLGITDRIMVMSNGRNAGIVNTKQTSQNEILELASRYL”, the “soluble on expression in E. coli” value was “not soluble”.
With “NQIYLPMVDFRPFKVGKSLRELTQAPAGAPEDVYEYVFVYEKNGKRQEFDMDHLPDDSWTYVDRHEKLIKKGYTPPVTDFLLLRGGEDVTSEIVNKKGITLLLLSPDWENASDDKMDNISEMYDYAQEHAWDFYGVSASTSDDISTWRYNTGADYPMLFLDAVTVKTITRGNPSLVILRDGVIRGKVSDANFPGVGQAQAFFDRYIGNELYQPS” the “soluble on expression in E. coli” value was “not soluble”.
For “GMRQGAGLGYRRDLAEGFLQLRNNDRIQFMEIAPENWIKMGGFARYQFDKVAEKIPILIHGLSLSLGGQAPLDKELLSSIKAMIKQYNTPFFSDHLSFCECDGHLYDLLPMPFTDEAVKHTAARIREVQDFLEIQISVENTSYYLHSETSTMNEVEFLNAIVQEANCGIHLDVNNIYVNAVNHGLLDPHVFIDNVDLKRVNYIHIAGHDDEHAATEVQIQTSESFNKIKGDLRHLPPLLVDTHGENVKGTVWDLLEYTYARLSHMPPTLLERDFNFPPFEKLCKEVDIIHQLQQKYVKKRGLSWLKI”, the “soluble on expression in E. coli” value was “soluble”.
In the case of “GPGSSAHAPEGKRATKTELGSTSLYVRVGQLTNLRRHPDADRLYVEDMVLGDETRTIVSGLVESYAIEELEGTQCLVVCNMKPKSLMGVTSQGMVLCAKRDTEVKLIRPPAGAKPGDRILFGASYDAAIAAAAPPEPISSNKMSEVLSHLHTNADSVLCWKDEPARHPSGAAVAIADMANCPVS”, the “soluble on expression in E. coli” value is reported as “soluble”.
For “MGSDKIHHHHHHMARYSKKMKLLINTPSLKFLGGGVANHYIGLRTFWTENVKYNVVGRRGGKSGSGKYWLPWDIFKFIFRLLTFRPNIILLNPSLGDKALKRDFIYLNICRFFRKKTSVFIHGFNFEYAKNADWKWISTNLNKALCIFVLSQEFKNELIRRGVKSDIHLTSTKVPDYFISGFDLSMRQGKAKNIMYSGRIEKAKGVYETVDTFSILKSQYKDLTLTFVGDGSELPKLKQYVENKKIKDVRFTGRLCGEDFKKEYINADMYLFLSYTEGMPTVVLEAMIFGLPIFTRKVGGLIDFFENGKMGYISSSLDPVVFAEAMKPYIESSAKMKSVSLYNSEYARTHFIASVVARKFENTLNYEYFKNQEHREH”, the “soluble on expression in E. coli” value was “not soluble”.
In the case of “MVAKGRIIRVTGPLVVADGMKGAKMYEVVRVGELGLIGEIIRLEGDKAVIQVYEETAGVRPGEPVVGTGASLSVELGPGLLTSIYDGIQRPLEVIREKTGDFIARGVTAPALPRDKKWHFIPKAKVGDKVVGGDIIGEVPETSIIVHKIMVPPGIEGEIVEIAEEGDYTIEEVIAKVKTPSGEIKELKMYQRWPVRVKRPYKEKLPPEVPLITGQRVIDTFFPQAKGGTAAIPGPFGSGKTVTQHQLAKWSDAQVVIYIGCGERGNEMTDVLEEFPKLKDPKTGKPLMERTVLIANTSNMPVAAREASIYTGITIAEYFRDMGYDVALMADSTSRWAEALREISGRLEEMPGEEGYPAYLASKLAEFYERAGRVVTLGSDYRVGSVSVIGAVSPPGGDFSEPVVQNTLRVVKVFWALDADLARRRHFPAINWLTSYSLYVDAVKDWWHKNIDPEWKAMRDKAMALLQKESELQEIVRIVGPDALPERERAILLVARMLREDYLQQDAFDEVDTYCPPEKQVTMMRVLLNFYDKTMEAINRGVPLEEIAKLPVREEIGRMKFERDVSKIRSLIDKTNEQFEELFKKYGA”, the “soluble on expression in E. coli” value is reported as “soluble”.
With “MGSDKIHHHHHHLKQFRRNYSDPNRGPTGKGVAKYQALKHTCQVCPSKMKCCPKADARKITREEHEDARQVARKIAETKQYVISMRLKKKVEMLFAHLKRILGLGRLRLRDPSRDHGYAMTLPGTACSASDEFLLAATAQNLRKLAKTFPAPQQTRKA” the “soluble on expression in E. coli” value was “not soluble”.
In the case of “MGSDKIHHHHHHMETPTQDMDVRWLYTQSQLKLREILPTNKTFDVIQISELVDPTDFISPNSVVLSVGIAFAETPDGLRDWAHRLADAGVIAIGFGSGLTFPQVPQALIDASLHLGLGLFEVPREIPFISITSSVRDEQTRRAGRLQQELLLEQERLNSIAISGGIEALCRAAADYLGGAVAIVDSDGRVACSITTDDLDALPQAVSRLNGSSQALTDATNFGFIHRMTRYGDRHHVLSVLMPTRPSEQHRALIRHCAGLADILLQRPEAMRDREIEVRSLAMSLLLGRSDDLATIHRVFADITDASGNIRPILITGNTPQSVRKALSSVATALYKQERALAHLRLAESTELLFLRGSRSVHNIVQLFGTAASGVRLCIGLPTRAENIDKKLIRELTATAKTLQLGTHAEPRDGTLLWLQNPELRKILKIRSRDTYDRLLDHDRTNNTELAPTLVSFTQHSGHIGDTAKELGIHRHTVRTRMIRIEEICEIDLNDPLTRAELLLVIATKEGDVEKQ”, the “soluble on expression in E. coli” value is reported as “not soluble”.
For “MIITKNISLPELYQEWLDLKIMPSNRSDVTKKKYLSRKVTLEKLFGDKPISQIRPSEYQRIMNNYGQRVSRNFLGRLNTGVKQSLQMAIADKVMIEDFTQNVELFSTVKLEHHHHHH”, the “soluble on expression in E. coli” value was “soluble”.
